Assay results from PMC10354202.
Where a chain is given by its changes, count along the chain named. Names and notes keep the numbering of the source. Blank lines part the entries; values can stand above or below the binder they belong to.

Target: T1, (Ig32)2-(R3^IVVI)-(Ig32)2 polyprotein, talin R3 domain with the IVVI mutation
T1 chain: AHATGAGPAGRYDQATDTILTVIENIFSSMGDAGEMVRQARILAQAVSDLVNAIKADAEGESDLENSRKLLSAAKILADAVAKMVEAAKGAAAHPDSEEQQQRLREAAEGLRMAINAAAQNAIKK
Experiment: magnetic tweezers
Conditions: chain shown with the change; for other: average unbinding time at 40 pN: parent: est. 9 s, read off a plot

other: unbinding time (tUb) at 40 pN, peak of square-root histogram: 3.4 s
other: average unbinding time at 40 pN: 18 s
B1: full-length human vinculin, wild type, P18206-2 K944A; R945A; D1013A; E1015A; E986A (protein)
chain: MPVFHTRTIESILEPVAQQISHLVIMHEEGEVDGKAIPDLTAPVAAVQAAVSNLVRVGKETVQTTEDQILKRDMPPAFIKVENACTKLVQAAQMLQSDPYSVPARDYLIDGSRGILSGTSDLLLTFDEAEVRKIIRVCKGILEYLTVAEVVETMEDLVTYTKNLGPGMTKMAKMIDERQQELTHQEHRVMLVNSMNTVKELLPVLISAMKIFVTTKNSKNQGIEEALKNRNFTVEKMSAEINEIIRVLQLTSWDEDAWASKDTEAMKRALASIDSKLNQAKGWLRDPSASPGDAGEQAIRQILDEAGKVGELCAGKERREILGTCKMLGQMTDQVADLRARGQGSSPVAMQKAQQVSQGLDVLTAKVENAARKLEAMTNSKQSIAKKIDAAQNWLADPNGGPEGEEQIRGALAEARKIAELCDDPKERDDILRSLGEISALTSKLADLRRQGKGDSPEARALAKQVATALQNLQTKTNRAVANSRPAKAAVHLEGKIEQAQRWIDNPTVDDRGVGQAAIRGLVAEGHRLANVMMGPYRQDLLAKCDRVDQLTAQLADLAARGEGESPQARALASQLQDSLKDLKARMQEAMTQEVSDVFSDTTTPIKLLAVAATAPPDAPNREEVFDERAANFENHSGKLGATAEKAAAVGTANKSTVEGIQASVKTARELTPQVVSAARILLRNPGNQAAYEHFETMKNQWIDNVEKMTGLVDEAIDTKSLLDASEEAIKKDLDKCKVAMANIQPQMLVAGATSIARRANRILLVAKREVENSEDPKFREAVKAASDELSKTISPMVMDAKAVAGNISDPGLQKSFLDSGYRILGAVAKVREAFQPQEPDFPPPPPDLEQLRLTDELAPPKPPLPEGEVPPPRPPPPEEKDEEFPEQKAGEVINQPMMMAARQLHDEARKWSSKGNDIIAAAKRMALLMAEMSRLVRGGSGTAAALIQCAKDIAKASDEVTRLAKEVAKQCTDKRIRTNLLQVCARIPTISTQLKILSTVKATMLGRTNISAEASEQATEMLVHNAQNLMQSVKETVREAEAASIKIRTDAGFTLRWVRKTPWYQ

other: unbinding time (tUb) at 40 pN, peak of square-root histogram: 4 s
other: average unbinding time at 40 pN: 27 s
B2: full-length human vinculin, wild type, P18206-2 K944A; R945A; D1013A; E1015A (protein)
chain: B1 chain with A986E
